Results on two molecules are retold here after publication PMC2150824 (The Journal of Cell Biology, 2001).

What is called stoichiometry N is a count of units in the complex or per binding partner.

The series “SEC” concerns the molecule itself. The series is described as follows: SEC.
For series [1], the target named is F-actin (rabbit skeletal muscle actin) (rabbit, UniProt P68135 1-377). In words: co-sedimentation.

B1: endogenous Hip1R stripped from CCVs with 0.5 M Tris-HCl (natural protein, UniProt Q9JKY5 1-1068, looked up)
chain: MNSIKNVPARVLSRRPGHSLEAEREQFDKTQAISISKAINSQEAPVKEKHARRIILGTHHEKGAFTFWSYAIGLPLSSSSILSWKFCHVLHKVLRDGHPNVLHDYQRYRSNIREIGDLWGHLRDQYGHLVNIYTKLLLTKISFHLKHPQFPAGLEVTDEVLEKAAGTDVNNIFQLTVEMFDYMDCELKLSESVFRQLNTAIAVSQMSSGQCRLAPLIQVIQDCSHLYHYTVKLMFKLHSCLPADTLQGHRDRFHEQFHSLKNFFRRASDMLYFKRLIQIPRLPEGPPNFLRASALAEHIKPVVVIPEEAPEEEEPENLIEISSAPPAGEPVVVADLFDQTFGPPNGSMKDDRDLQIENLKREVETLRAELEKIKMEAQRYISQLKGQVNGLEAELEEQRKQKQKALVDNEQLRHELAQLKALQLEGARNQGLREEAERKASATEARYSKLKEKHSELINTHAELLRKNADTAKQLTVTQQSQEEVARVKEQLAFQMEQAKRESEMKMEEQSDQLEKLKRELAARAGELARAQEALSRTEQSGSELSSRLDTLNAEKEALSGVVRQREAELLAAQSLVREKEEALSQEQQRSSQEKGELRGQLAEKESQEQGLRQKLLDEQLAVLRSAAAEAEAILQDAVSKLDDPLHLRCTSSPDYLVSRAQAALDSVSGLEQGHTQYLASSEDASALVAALTRFSHLAADTIVNGAATSHLAPTDPADRLMDTCRECGARALELVGQLQDQTVLPRAQPSLMRAPLQGILQLGQDLKPKSLDVRQEELGAMVDKEMAATSAAIEDAVRRIEDMMSQARHESSGVKLEVNERILNSCTDLMKAIRLLVMTSTSLQKEIVESGRGAATQQEFYAKNSRWTEGLISASKAVGWGATQLVESADKVVLHMGKYEELIVCSHEIAASTAQLVAASKVKANKNSPHLSRLQECSRTVNERAANVVASTKSGQEQIEDRDTMDFSGLSLIKLKKQEMETQVRVLELEKTLEAERVRLGELRKQHYVLAGGMGTPSEEEPSRPSPAPRSGATKKPPLAQKPSIAPRTDNQLDKKDGVYPAQLVNY
On to B1, for which the “stoichiometry N” value in “SEC” amounted to 2.

B2: yeast coronin (natural protein)
chain: MSGKFVRASKYRHVFGQAAKKELQYEKLKVTNNAWDSNLLKTNGKFIAVNWNASGGGAFAVIPIEEVGKAPDQVPLFRGHTAQVLDTDFDPFNDHRIASGSDDSKIGIWDIPENYKFHDHVDEDGEPIDIKPVKFLTGHARKVGHVLYHPVAENVLASSSGDYTVKLWNVETGKDMITLKHPDMVTSMSFSYDGNYLATVARDKKLRVWNIREEKIVSEGPAHTGAKNQRVVWLGNSDRLATTGFSKLSDRQIGIWDAFNIEKGDLGGFYTVDQSSGILMPFYDEGNKILYLVGKGDGNIRYYEFQNDELFELSEFQSTEAQRGFAVAPKRMVNVKENEVLKGFKTVVDQRIEPVSFFVPRRSEEFQEDIYPDAPSNKPALTAEEWFSGKSVEGPILVSMRSIYDGSAPSFHEAKRPQQPTTQETALEEKKEQPKVEKPISESEKEVKQEAPKSPSPLKSASSSSTINHVLKEDNSINKLLKKSSDIDQVNNAEDPSRDTSGWEEADDEPAPIKIETPVTPTETKKDRTPKVEPSKELKPEPVSIATDRKQEQSLPQEEKSSEKTKSPEQEKSATPPSSITAAKTAITASSKEEPSAARTSPKSLGLKKSVEKLSTLVLQLEDVVDKLTKANLDKDERLLKLEQKIGELSK
Take B2: the binding result in series [1] is given as “binds”.
